Data on seven sequences can be found in the supplement of paper PMC10201428.

Data set [1] relates to VchCAST RNA-guided transposition machinery (E. coli BL21(DE3) host, lacZ target). Nature of the data set: relative integration efficiency (T-LR orientation) vs wild-type transposon end (log2 (normalized fold change)); transposon end mutated: left end; higher = more efficient transposition. In a few lines:
(§1)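 A T7-driven effector plasmid encoding a CRISPR array, tniQ-cas8-cas7-cas6 and tnsA-tnsB-tnsC was co-transformed into E. coli BL21(DE3) together with a pUC57 mini-transposon donor holding barcoded pools of 1549 left-end or 1849 right-end variants. Transformants were plated with 0.1 mM IPTG at 37°C for 18 h. Illumina sequencing of PCR-amplified input plasmids and genomic integration junctions gave barcode abundances, and relative integration efficiency is their output/input fold change, normalised to reference barcodes and log-transformed.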

The test system is the same in data set [2]. Nature of the data set: relative integration efficiency (T-RL orientation) vs wild-type transposon end (log2 (normalized fold change)); transposon end mutated: left end; higher = more efficient transposition. In a few lines: as §1

± gives the standard deviation of the averaged measurements.

On to “AATGTTGTTGATGCAACCATAAAGTGATATTTAATAATTATTTATAATCAGCAACTTAACCACAAAACAACCATATATTGATATCTCACAAAACAACCATAAGTTGATATGGGGTGTCCGATCTGATTTCAGCAAAACTACTGCAGTAAGAA”, for which the “relative integration efficiency (log2)” value is -0.611 ± 0.81 in data set [1] and -0.33 ± 0.14 in data set [2].
Taken in the same sequence, the figures for “AATGTTGTTGATGCAACCATAAAGTGATATTTATACCGTTCGTATAATGTATGCTATACCAAGTTATCAACCATATATTGATATCTCACAAAACAACCATAAGTTGATATTTTTGTGAATCGAGTATTTCAGCAAAACTACTGCAGTAAGAA” were -3.21 ± 0.88 and -4.32 ± 1.2.
In the case of “AATGTTGTTGATGCAACCATAAAGTGATATTTAATAATTATTCAACCATATATTGATATCTCTATAATCAGCAACTTAACCACAAAAACAAAACAACCATAAGTTGATATTTTTGTGAATCGAGTATTTCAGCAAAACTACTGCAGTAAGAA”, the “relative integration efficiency (log2)” value in data set [1] is -3.42 ± 0.56; in data set [2], -5.19 ± 1.2.
For “AATGTTGTTGATGCAACCATAAAGTGATATTTAACAACCATATATTGATATCTCTAATTATTTATAATCAGCAACTTAACCACAAAAACAAAACAACCATAAGTTGATATTTTTGTGAATCGAGTATTTCAGCAAAACTACTGCAGTAAGAA”, the “relative integration efficiency (log2)” value is -0.167 ± 0.77 in data set [1] and -2.13 ± 0.82 in data set [2].
As to “AATGTTGTTGATGCAACCATAAAGTGATATTTAATAATTATTTATAATCAGCAACTTAACCACAAAACAACCATATATTGATATCTCACAAAAACCAACGCCTGGTCGCGGGGGTGTCCGATCTGATTTCAGCAAAACTACTGCAGTAAGAA”, the “relative integration efficiency (log2)” value in data set [1] is -0.363 ± 1.2; in data set [2] it was -2.38 ± 1.1.
As to “AATGTTGTTGATGCAACCATAAAGTGATATTTAATCAACCATATATTGATATCTCACAAAACAACCATAAGTTGATATTTTTGTGAATCGAGTATTTCAGCAAAACTACTGCAGTAAGAAAGTTACTTCGTGGTATGGGAGGATCAAGGAGC”, the “relative integration efficiency (log2)” value in data set [1] was -0.405 ± 1; in data set [2], -3.38 ± 1.4.
Taken in the same sequence, the figures for “AATGTTGTTGATGCAACCATAAAGTGATATTTAATAATTATTTATAAGACTACCAGGCCAACACCCCACCAACGCGCGGTCGCGAGACACCCCACCAACGCCTGGTCGCGGGGGTGTCCGATCTGATTTCAGCAAAACTACTGCAGTAAGAA” were -6.04 ± 3.5 and -6.62 ± 1.2.
